Drawing on paper PMC10025160, “Uncovering Zn^2+ as a cofactor of FAD-dependent Pseudomonas aeruginosa PAO1 D-2-hydroxyglutarate dehydrogenase” (The Journal of Biological Chemistry, 2023), this text covers Km, kcat and kcat/Km for 1 protein.

Substrate in the data set: O=C(O)C[C@@H](O)C(=O)O
In words: initial rates, oxygen consumption (Oxy-32 electrode). Particulars: E-Zn^2+ form (purified with 1 mM ZnCl2, Zn:protein about 2:1), 1 mM PMS (fixed), 25 mM NaPO4, pH 7.4, 25 °C, apparent. The format is biochemical, Pseudomonas aeruginosa. From the text: initial rates, oxygen consumption (Oxy-32 electrode) on PaD2HGDH

B1: PaD2HGDH (Pseudomonas aeruginosa PAO1) (protein)
chain: MTREALIESLKPLVEPGKLLDDAASLDAYGKDWTKHFAPAPLAIVFPKSVEQVQAIVRWANQHKVGLVPSGGRTGLSAAAVAANGEVVVAFDYMNRILDFNAFDRTVVCQPGVVTKQLQTFAEENGLYYPVDFASSGSSQIGGNIGTNAGGIKVIRYGMTRNWVAGMKVVTGKGDLLELNKDLIKNATGYDMRQLFIGAEGTLGFVVEATMRLERTPKNLTAMVLGTPDFDSIMPVLHAFQSKLDLTAFEFFSDKALAKVLARGDVPRAFETDCPFYALLEFEATTEEVANEALATFEHCVEQGWVLDGVMSQSEQQLQNLWKLREYISETISHWTPYKNDISVTVSRVPAFLKDIDAIVEANYPDFEVVWFGHIGDGNLHLNILKPENLGKDEFFAKCATVNKWVFETVEKYNGSISAEHGVGMTKRDYLTYTRSETEIAYMKALKAVFDPNGIMNPGKIFAE
notes: wild type, His-tagged, pET20b(+), expressed in E. coli Rosetta(DE3)pLysS, Ni-NTA purified
For orientation: Km means the concentration of substrate that gives half-maximal velocity. In general, kcat refers to the maximal rate divided by the concentration of active sites. One may read the kcat/Km as the turnover number divided by the Michaelis constant. With B1, the Km is 5.1 ± 0.4 mM, the kcat turned out to be 38 ± 1 s⁻¹ and the specificity constant (kcat/Km) is 7000 ± 500 M⁻¹ s⁻¹.
